Assay [1] has as its target SEMG2(563-574) fragment (human). In words: ELISA, immobilized antigen SEMG2 (563-574).
Assay [2] concerns the target human SEMG2 full-length protein (human) (UniProt Q02383). In words: ELISA, immobilized antigen SEMG2 (1-582). (ELISA stands for enzyme-linked immunosorbent assay.)
Assay [3] has as its target SEMG2(497-509) polypeptide … (human). Put plainly: ELISA, immobilized peptide ….
Assay [4] has as its target SEMG2(442-453) fragment (human). Put plainly: ELISA, immobilized antigen SEMG2 (442-453).
Assay [5] deals with SEMG2(497-509) polypeptide … (human). Put plainly: ELISA, immobilized antigen SEMG2 (497-509).
For assay [6], the target named is SEMG2(354-403) fragment (human). Put plainly: ELISA, immobilized antigen SEMG2 (354-403).
Chain of SEMG2(354-403) fragment (human) (peptide, as listed by the source): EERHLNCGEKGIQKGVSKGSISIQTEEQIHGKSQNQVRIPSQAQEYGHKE
Assay [7] has as its target human SEMG2 full-length protein (human) (UniProt Q02383). In words: ELISA, plate coated with SEMG2 protein; fit value printed for the flat control curve (see non_binding); the EC50 table prints no unit, the axis is log (antibody concentration, nM).

A word on the EC50: it is the concentration that produces a half-maximal response. High values mean a less potent agent, low ones a more potent agent.

Chain of human SEMG2 full-length protein (human) (Q02383 24-582 limits assumed): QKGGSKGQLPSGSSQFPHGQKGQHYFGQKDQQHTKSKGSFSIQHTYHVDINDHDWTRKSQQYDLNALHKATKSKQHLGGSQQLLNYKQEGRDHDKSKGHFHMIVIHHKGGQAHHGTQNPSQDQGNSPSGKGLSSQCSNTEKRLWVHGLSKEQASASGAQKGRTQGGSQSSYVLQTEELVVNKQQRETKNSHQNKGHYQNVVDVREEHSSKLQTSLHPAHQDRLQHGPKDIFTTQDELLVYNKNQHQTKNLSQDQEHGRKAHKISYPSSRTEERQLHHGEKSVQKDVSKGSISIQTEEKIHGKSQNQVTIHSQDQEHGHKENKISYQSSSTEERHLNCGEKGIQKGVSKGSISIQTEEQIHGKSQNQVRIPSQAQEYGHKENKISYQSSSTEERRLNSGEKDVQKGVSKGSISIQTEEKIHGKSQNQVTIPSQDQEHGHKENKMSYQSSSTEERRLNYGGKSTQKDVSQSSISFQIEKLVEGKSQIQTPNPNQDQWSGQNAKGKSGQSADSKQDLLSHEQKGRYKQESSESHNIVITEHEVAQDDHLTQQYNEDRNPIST

Turning to “HPA042767 (rabbit polyclonal antibody against SEMG2(354-403), Sigma Aldrich)”, the A450 absorbance in assay [1] came to 0.011; in assay [2], 1.16; in assay [4], 0.007; in assay [5], 0.002; in assay [6] it was 1.14. The same substance registered an OD450 absorbance in assay [3] of 0.005.
In assay [7], mIgG1 (antibody) gave an EC50 of 0.0885 nM.
“HPA042835 (rabbit polyclonal antibody against SEMG2(563-574), Sigma Aldrich)”: the A450 absorbance in assay [1] came out at 1.16; in assay [2] it was 1.17; in assay [4], 0.002; in assay [5], 0.009; in assay [6], 0.009. The substance further registered an OD450 absorbance in assay [3] of 0.005.

These data come from patent US20230080534A1, “SEMG2 ANTIBODY AND USE THEREOF” (SHANGHAI BIOTROY BIOTECHNIQUE CO., LTD., priority 2020, published 2023).
